These results are taken from patent US20100293752A1.

Test [1] addresses CFP from CFP-empty plasmid (pECFP). Put plainly: FRET by acceptor photobleaching, negative control: cotransfection of CFP- and YFP-empty plasmids.
For test [2], the target named is CFP-tagged CD44 (human full length CD44s cDNA fused in frame into pECFP, expressed in MDA-MB231 cells) (human) (UniProt P16070). Description: FRET by acceptor photobleaching in MDA-MB231 cells, in the presence of blocking antibody to αvβ3 integrin.
The target is the same in test [3]. Put plainly: FRET by acceptor photobleaching, confocal microscopy, MDA-MB231 cells coexpressing CFP-CD44 and YFP-OPN.
Test [4] has the same target. Description: FRET by acceptor photobleaching in MDA-MB231 cells, in the presence of the mutated OPN-R3 RNA aptamer (control).

In test [1], YFP from YFP-empty plasmid (pEYFP) came in with an FRET efficiency of 0.23%.

For “YFP-tagged OPN (human OPN-a cDNA fused in frame into pEYFP, expressed in MDA-MB231 cells) (from UniProt P10451 1-314) (ligand)”, the results for the FRET efficiency in test [2], in test [3] and in test [4] were 19.6%, 24.2% and 23.1%, respectively.
